Experimental findings from article PMC6468809, “Structural Analysis of the 42 kDa Parvulin of Trypanosoma brucei” (Biomolecules, 2019) are described below.

*1 amine or outer side, *2 acyl side, *3 side chain or, on linkers, in order; H or OH if unused. Where no end group is shown, it is not given here. [ ]: non-standard residue; d: D form. pT = C[C@@H](OP(=O)(O)O)[C@H](N)C(=O)O; Suc = O=C(CCC(=O)[*:2])[*:1]

To fix the notation:
T1: TbPar42 PPIase domain (264-383) (T. brucei, succinyl on the N-terminus; phosphothreonine at position 2; C-terminal amide / 15N-labelled, wild type; entity position 1 = Pro264 (offset 263), so checks are His271, Cys333, Leu374; residual GP from)
T1 chain: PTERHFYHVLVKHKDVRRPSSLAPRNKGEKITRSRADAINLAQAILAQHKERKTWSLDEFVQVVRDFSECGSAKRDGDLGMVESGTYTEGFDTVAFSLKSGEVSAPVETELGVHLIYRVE

B1: Suc-Ala-pThr-Pro-Ala-NH2 (peptide)
peptide: Suc-A[pT]PA-NH2
SMILES: C[C@H](NC(=O)[C@@H]1CCCN1C(=O)[C@@H](NC(=O)[C@H](C)NC(=O)CCC(=O)O)[C@@H](C)OP(=O)(O)O)C(N)=O
notes: also called phosphorylated model peptide; source: synthetic peptide, bought: CASLO

The first assay has as its target TbPar42 N-terminal extended FHA domain (1-177) (Trypanosoma brucei, UniProt Q57XM6 1-177). Nature of the assay: NMR titration; unlabelled Ala-Glu-Ala-pThr-Ala-Glu-Xaa peptide added stepwise up to 8 mM to 250 µM 15N-labelled NterFHA; 1H-15N-HSQC, 27 °C; mean KD values. The note with it: both partners purified.
The term Kd denotes the free concentration of one partner at which half of the binding sites on the other are occupied at equilibrium, for simple one-to-one binding. A high value points to weaker binding. For AEA[pT]AED [Ala-Glu-Ala-pThr-Ala-Glu-Asp], the Kd was found to be 3.4 mM.

Consider AEA[pT]AES [Ala-Glu-Ala-pThr-Ala-Glu-Ser], for which binding was put at a Kd of 3.1 mM.

In turn, AEA[pT]AEI [Ala-Glu-Ala-pThr-Ala-Glu-Ile] had a Kd of 4.1 mM.

AEA[pT]AEV [Ala-Glu-Ala-pThr-Ala-Glu-Val]: the Kd stood at 3.9 mM.

In turn, AEA[pT]AEE [Ala-Glu-Ala-pThr-Ala-Glu-Glu] gave a Kd of 5.4 mM.

The target of a further assay is T1, TbPar42 PPIase domain (264-383). Description: NMR titration; 440 uM 15N-labelled NterFHA or PPIase in 50 mM potassium phosphate, pH 6.26, 90%/10% H2O/D2O; peptide added stepwise to 13 mM; 1H-15N-HSQC or SOFAST spectra, 700 MHz, 27 °C. The note with it: both partners purified.
For B1, the Kd is roughly 10 mM.
